US20180137234A1 (University of Washington, published 2018)

Assays:
[1] = molecular target: the molecule itself; assay: X-ray crystal structure of the homotrimer
[2] = molecular target: the molecule itself; assay: X-ray crystal structure of the homodimer
[3] = molecular target: the molecule itself; assay: SEC-MALS and SAXS of the original construct

Protein	binding result [1]	binding result [2]	other results
HR00C3_2 (designed binder, One subunit of a designed homotrimer (C3) built from a de novo designed repeat protein) IEEVVAEMIDILAESSKKSIEELARAADNKTTEKAVAEAIEEIARLATAAIQLIEALAKNLASEEFMARAISAIAELAKKAIEAIYRLADNHTTDTFMARAIAAIANLAVTAILAIAALASNHTTEEFMARAISAIAELAKKAIEAIYRLADNHTTDKFMAAAIEAIALLATLAILAIALLASNHTTEEFMAKAISAIAELAKKAIEAIYRLADNHTSPTYIEKAIEAIEKIARKAIKAIEMLAKNITTEEYKEKAKSAIDEIREKAKEAIKRLEDNRT	binds		
ank1C2_1 (designed binder, One subunit of a designed homodimer (C2) built from an idealized ankyrin repeat protein; also called ank1C2_G3; ANK1C2-G3) SELGKRLIEAAENGNKDRVKDLIENGADVNASDSDGRTPLHHAAENGHAEVVALLIEKGADVNAKDSDGRTPLHHAAENGHDEVVLILLLKGADVNAKDSDGRTPLHHAAENGHKRVVLVLILAGADVNTSDSDGRTPLDLAREHGNEEVVKALEKQ		binds	
ank3C2_1 (designed binder, One subunit of a designed homodimer (C2) built from an idealized ankyrin repeat protein; It was expressed in E. coli with an N- or C-terminal (His)6 tag) SELGKRLIEAAENGNKDRVKDLLENGADVNASDSDGKTPLHLAAENGHAKVVLLLLEQGADPNAKDSDGKTPLHLAAENGHAVVVALLLMHGADPNAKDSDGKTPLHLAAENGHEEVVILLLAMGADPNTSDSDGRTPLDLAREHGNEEVVKVLEDH		binds	
1na0C3_3 (designed binder, One subunit of a designed homotrimer (C3) built from a consensus designed tpr protein) NLAEKMYKAGNAMYRKGQYTIAIIAYTLALLKDPNNAEAWYNLGNAAYKKGEYDEAIEAYQKALELDPNNAEAWYNLGNAYYKQGDYDEAIEYYQKALELDPNNAEAKQNLGNAKQKQG	binds		
HR04C4_1 (designed binder, One subunit of a designed homotetramer (C4); also called tj10C4_G1) DECEEKARRVAEKVERLKRSGTSEDEIAEEVAREISEVIRTLKESGSSYEVICECVARIVAEIVEALKRSGTSAVEIAKIVARVISEVIRTLKESGSSYEVICECVARIVAEIVEALKRSGTSAAIIALIVALVISEVIRTLKESGSSFEVILECVIRIVLEIIEALKRSGTSEQDVMLIVMAVLLVVLATLQLSGS			binding result [3]: binds
